From patent US20080219999A1

Biological target: Rhinovirus serotype HRV-39 (human rhinovirus 39)
Assay: cell-based or functional assay

Substance: IC1-5D/IgA (ICAM/IgA fusion, gift of Dr. Tim Springer; Martin, et al., 1993) (from UniProt P05362 28-480; P01876 103-353) (Fc fusion)
- IC50, cytopathic effect (CPE) assay on HeLa S3 cells: 0.12 µg/mL
- fold lower IC50 than soluble ICAM-1, CPE assay on HeLa S3 cells: 11.3 fold

Substance: soluble human ICAM-1 (from UniProt P05362 28-480)
- IC50, cytopathic effect (CPE) assay on HeLa S3 cells: 1.35 µg/mL
